Assay results taken from patent EP4261278A1.

Molecular target: NDM-type carbapenemase (New Delhi metallo-β-lactamase), recombinant
Test: indirect ELISA, plate coated with 0.2 µg/mL NDM carbapenemase, goat anti-mouse secondary antibody, TMB
Details: scale: reciprocal dilution

| Binder | titer |
| --- | --- |
| anti-NDM-type carbapenemase mouse mAb 1GH10 (antibody, V domains shown) VH: SRDYGLRVELVRPGTSVKVSCKASGYAFSNYLIEWVKQRPGQGLEWIGVINPGRDDTNYNEKFKGKATLTADKSSSTAYMHLSSLTSDDSAVYFCARFPSILRYDSGSFSYFGLDCWGQGTSVTVSS VL: DVLMTQTPLSLSVSLGDQASISCRSSQSIVHSDGNTYLDWYLQKPGQSPKLLIYKVSNRFSGVPDRFSGSGSGTDFTLKITRVEAEDLGVYYCFQISRVPFTFGSGTKLEIKR | > 1.28e+06 |
| anti-NDM-type carbapenemase mouse mAb 12HE11 (antibody, V domains shown) VH: VQLHESGPELVKPGASVKLSCTASGYTLSDYHVKWVKQNHGQSLEWIGDIRPQNGDIVYNQKFKDKATLTVDKSSTTAYIRLSSLTSEDSAVYYCAFHYYAYGKWFPYWGQGTLVTVS VL: DILMTQSPSSLTVTAGEKVTLSCRSSQSLFNSGNQKNYLTWHQQKPGQSPKLLIYWAVTRESGVPDRFTGSGSGTDFTLTISSVQAEDLAIYYCQNDYSYPLTFGAGTKLELK | > 1.28e+06 |
